Patent US20110195900A1, “PEPTIDIC PTH RECEPTOR AGONISTS” (FERRING B.V., priority 2008, published 2011)
Starred links: 1 amine or outer side, 2 acyl side, 3 side chain; linkers in the order of their positions; H or OH if unused. Non-standard residues stand in square brackets, D forms with d. No end group written: not given here. hSer(OMe) = COCC[C@H](N[*:1])C(=O)[*:2]; 1Nal = N[C@@H](Cc1cccc2ccccc12)C(=O)O; 2Nal = N[C@@H](Cc1ccc2ccccc2c1)C(=O)O; β3hI = CC[C@H](C)[C@H](N)CC(=O)O; β3hE = N[C@@H](CCC(=O)O)CC(=O)O; Nle = CCCC[C@H](N)C(=O)O; β3hA = C[C@H](N)CC(=O)O; Aib = CC(C)(N)C(=O)O; βAla = NCCC(=O)O

Tests used:
[1] = biological target: human parathyroid hormone receptor 1 (human, UniProt Q03431); assay: cell-based or functional assay
[2] = biological target: human parathyroid hormone receptor 2 (human, UniProt P49190); assay: cell-based or functional assay

Binder	hPTHR-1 EC50 (nM), CRE-luciferase reporter gene assay [1] [nM]	hPTHR-2 EC50 (nM), luciferase reporter gene assay [2] [nM]
SVSEIQL[Nle]HNL[Aib]KHLNS[β3hI]ERVE[1Nal]LRKLLQDVHNF-NH2 [[Nle^8, Aib^12, β-hIle^18, 1-Nal^23, Leu^27] hPTH (1-34)-NH2]	0.23	13
SVSEIQL[hSer(OMe)]HNLGKHLN[βAla][hSer(OMe)]ERVE[1Nal]LRKLLQDVHNF-NH2 [[hSer(OMe)^8,18, β-Ala^17, 1-Nal^23, Leu^27] hPTH(1-34)-NH2]	0.88	> 270
SVSEIQL[Nle]HNLGKHLKS[β3hI]ERVE[1Nal]LRKLLQDVHNF-NH2 [[Nle^8, Lys^16, β-hIle^18, 1-Nal^23, Leu^27] hPTH (1-34)-NH2]	0.08	30
SVSEIQL[Nle]HNLGKHLNS[β3hI]ERVE[1Nal]LRKLLQDVHNK-NH2 [[Nle^8, β-hIle^18, 1-Nal^23, Leu^27, Lys^34] hPTH (1-34)-NH2]	0.1	17
SVSEIQL[Nle]HNLGKHLKS[β3hI]ERVE[1Nal]LRKLLQRVHNF-NH2 [[Nle^8, Lys^16, β-hIle^18, 1-Nal^23, Leu^27, Arg^30] hPTH (1-34)-NH2]	0.14	14
SVSEIQL[Nle]HNLGKHLNS[β3hI]ERVE[1Nal]LRKLLQRVHNF-NH2 [[Nle^8, β-hIle^18, 1-Nal^23, Leu^27, Arg^30] hPTH (1-34)-NH2]	0.18	7
SVSEIQL[Nle]HNLGKHLNS[β3hI]ERVE[1Nal]LRKLLQDVHNE-NH2 [[Nle^8, β-hIle^18, 1-Nal^23, Leu^27, Glu^34] hPTH (1-34)-NH2]	0.12	57
AVSEIQL[Nle]HNLGKHLN[βAla][Nle]ERVE[1Nal]LRKLLQDVHNF-NH2 [[Ala^1, Nle^8,18, β-Ala^17, 1-Nal^23, Leu^27] hPTH (1-34)-NH2]	0.2	89
SVSEIQL[Nle]HNLGKHLN[βAla][hSer(OMe)]ERVE[1Nal]LRKLLQDVHNF-NH2 [[Nle^8, β-Ala^17, hSer(OMe)^18, 1-Nal^23, Leu^27] hPTH (1-34)-NH2]	0.13	93
[Aib]VSEIQL[Nle]HNLGKHLN[βAla][hSer(OMe)]ERVE[1Nal]LRKLLQDVHNF-NH2 [[Aib^1, Nle^8, β-Ala^17, hSer(OMe)^18, 1-Nal^23, Leu^27] hPTH (1-34)-NH2]	0.06	49
SVSEIQL[Nle]HNL[Aib][Aib]HLNS[β3hI]ERVE[1Nal]LRKLLQDVHNF-NH2 [[Nle^8, Aib^12,13, β-hIle^18, 1-Nal^23, Leu^27] hPTH (1-34)-NH2]	0.25	34
SVSEIQL[Nle]HNLGKHLN[βAla][Nle]ERVE[1Nal]LRKLLQDVHNF-NH2 [[Nle^8,18, β-Ala^17, 1-Nal^23, Leu^27] hPTH (1-34)-NH2]	0.12	47
SVSEIQL[Nle]HNLGKHLNS[β3hI]ERVE[1Nal]LRKLLQDVHEF-NH2 [[Nle^8, β-hIle^18, 1-Nal^23, Leu^27, Glu^33] hPTH (1-34)-NH2]	0.12	41
SVSEIQL[Nle]HNLGKHLNS[β3hA]ERVE[1Nal]LRKLLQDVHNF-NH2 [[Nle^8, β-hAla^18, 1-Nal^23, Leu^27] hPTH (1-34)-NH2]	0.22	61
SVSEIQL[Nle]HNLGKHLNS[β3hI]ERVE[1Nal]LRKLLQSVHNF-NH2 [[Nle^8, β-hIle^18, 1-Nal^23, Leu^27, Ser^30] hPTH (1-34)-NH2]	0.19	19
SVSEIQL[Nle]HSLGKHLNS[β3hI]ERVE[1Nal]LRKLLQDVHNF-NH2 [[Nle^8, Ser^10, β-hIle^18, 1-Nal^23, Leu^27] hPTH (1-34)-NH2]	0.18	17
[Aib]VSEIQL[Nle]HNLGKHLNS[β3hI]ERVE[1Nal]LRKLLQDVHNF-NH2 [[Aib^1, Nle^8, β-hIle^18, 1-Nal^23, Leu^27] hPTH (1-34)-NH2]	0.04	16
SVSEIQL[Nle]HNLGKHLSS[β3hI]ERVE[1Nal]LRKLLQDVHNF-NH2 [[Nle^8, Ser^16, β-hIle^18, 1-Nal^23, Leu^27] hPTH (1-34)-NH2]	0.19	20
SVSEIQL[Nle]HNLGKHLNS[β3hI]ERVE[1Nal]LRKLLQHVHNF-NH2 [[Nle^8, β-hIle^18, 1-Nal^23, Leu^27, His^30] hPTH (1-34)-NH2]	0.18	13
[Aib]VSEIQL[Nle]HNLGKHLN[βAla][Nle]ERVE[2Nal]LRKKLQDVHNF-NH2 (N-terminus assumed; SMILES CCCC[C@H](NC(=O)CCNC(=O)[C@H](CC(N)=O)NC(=O)[C@H](CC(C)C)NC(=O)[C@H](Cc1c[nH]cn1)NC(=O)[C@H](CCCCN)NC(=O)CNC(=O)[C@H](CC(C)C)NC(=O)[C@H](CC(N)=O)NC(=O)[C@H](Cc1c[nH]cn1)NC(=O)[C@H](CCCC)NC(=O)[C@H](CC(C)C)NC(=O)[C@H](CCC(N)=O)NC(=O)[C@@H](NC(=O)[C@H](CCC(=O)O)NC(=O)[C@H](CO)NC(=O)[C@@H](NC(=O)C(C)(C)N)C(C)C)[C@@H](C)CC)C(=O)N[C@@H](CCC(=O)O)C(=O)N[C@@H](CCCNC(=N)N)C(=O)N[C@H](C(=O)N[C@@H](CCC(=O)O)C(=O)N[C@@H](Cc1ccc2ccccc2c1)C(=O)N[C@@H](CC(C)C)C(=O)N[C@@H](CCCNC(=N)N)C(=O)N[C@@H](CCCCN)C(=O)N[C@@H](CCCCN)C(=O)N[C@@H](CC(C)C)C(=O)N[C@@H](CCC(N)=O)C(=O)N[C@@H](CC(=O)O)C(=O)N[C@H](C(=O)N[C@@H](Cc1c[nH]cn1)C(=O)N[C@@H](CC(N)=O)C(=O)N[C@@H](Cc1ccccc1)C(N)=O)C(C)C)C(C)C) [[Aib^1, Nle^8,18, β-Ala^17, 2-Nal^23] hPTH (1-34)-NH2]	0.22	46
SVSEIQL[Nle]HELGKHLNS[β3hI]ERVE[1Nal]LRKLLQDVHNF-NH2 [[Nle^8, Glu^10, β-hIle^18, 1-Nal^23, Leu^27] hPTH (1-34)-NH2]	0.13	3
[Aib]VSEIQL[Nle]HNLGKHLN[βAla][Nle]ERVE[1Nal]LRKLLQDVHNF-NH2 [[Aib^1, Nle^8,18, β-Ala^17, 1-Nal^23, Leu^27] hPTH (1-34)-NH2]	0.06	31
SVSEIQL[Nle]HNLGKHLES[β3hI]ERVE[1Nal]LRKLLQDVHNF-NH2 [[Nle^8, Glu^16, β-hIle^18, 1-Nal^23, Leu^27] hPTH (1-34)-NH2]	0.16	37
SVSEIQL[Nle]HNLGKHLNS[β3hI]ERVE[1Nal]LRKLLQDVHKF-NH2 [[Nle^8, β-hIle^18, 1-Nal^23, Leu^27, Lys^33] hPTH (1-34)-NH2]	0.15	32
SVSEIQL[Nle]HNLGKHLNS[Nle][β3hE]RVE[1Nal]LRKLLQDVHNF-NH2 (N-terminus assumed; SMILES CCCC[C@H](NC(=O)[C@H](CO)NC(=O)[C@H](CC(N)=O)NC(=O)[C@H](CC(C)C)NC(=O)[C@H](Cc1c[nH]cn1)NC(=O)[C@H](CCCCN)NC(=O)CNC(=O)[C@H](CC(C)C)NC(=O)[C@H](CC(N)=O)NC(=O)[C@H](Cc1c[nH]cn1)NC(=O)[C@H](CCCC)NC(=O)[C@H](CC(C)C)NC(=O)[C@H](CCC(N)=O)NC(=O)[C@@H](NC(=O)[C@H](CCC(=O)O)NC(=O)[C@H](CO)NC(=O)[C@@H](NC(=O)[C@@H](N)CO)C(C)C)[C@@H](C)CC)C(=O)N[C@@H](CCC(=O)O)CC(=O)N[C@@H](CCCNC(=N)N)C(=O)N[C@H](C(=O)N[C@@H](CCC(=O)O)C(=O)N[C@@H](Cc1cccc2ccccc12)C(=O)N[C@@H](CC(C)C)C(=O)N[C@@H](CCCNC(=N)N)C(=O)N[C@@H](CCCCN)C(=O)N[C@@H](CC(C)C)C(=O)N[C@@H](CC(C)C)C(=O)N[C@@H](CCC(N)=O)C(=O)N[C@@H](CC(=O)O)C(=O)N[C@H](C(=O)N[C@@H](Cc1c[nH]cn1)C(=O)N[C@@H](CC(N)=O)C(=O)N[C@@H](Cc1ccccc1)C(N)=O)C(C)C)C(C)C) [[Nle^8,18, β-hGlu^19, 1-Nal^23, Leu^27] hPTH (1-34)-NH2]	0.32	29
[Aib]VSEIQL[Nle]HSLGKHLKS[β3hI]ERVE[1Nal]LRKLLQRVHEE-NH2 [[Aib^1, Nle^8, Ser^10, Lys^16, β-hIle^18, 1-Nal^23, Leu^27, Arg^30, Glu^33, Glu^34] hPTH (1-34)-NH2]	0.04	4
SVSEIQL[Nle]HNLGKHLNS[β3hI]ERVE[1Nal]LRKLLQDVHNF-NH2 [[Nle^8, β-hIle^18, 1-Nal^23, Leu^27] hPTH (1-34)-NH2]	0.14	32
SVSEIQLXHNLGXHLNSXERVEXLRKLLQDVHNF (Nle^8, Aib^13, β-hIle^18, 1-Nal^23, C-terminal NH2 (amide)) [[Nle^8, Aib^13, β-hIle^18, 1-Nal^23, Leu^27] hPTH (1-34)-NH2]	0.14	68
